{"source": "the nanobody polyreactivity screen of Harvey et al. (2022)", "data": [{"experiment": "yeast display, Sf9 membrane polyspecificity reagent, FACS + sequencing; frameworks hold sequencing errors", "summary_of_the_method": "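After 36–48 hours of galactose induction, yeast (Saccharomyces cerevisiae BJ5465) displaying a synthetic nanobody library were stained at 4 °C for 1 hour with 10% biotinylated, detergent-solubilized Sf9 membrane reagent. Streptavidin microbeads enriched the stained cells before FACS sorting into low and high (top ~1%) gates on anti-HA and streptavidin fluorescence. Each clone's polyreactivity label reflects its gate of origin.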", "values": [{"sequence": "QVQLVESGGGLVQAGGSLRLSCAASGAIFYYYAMGWYRQAPGKERELVATITASGGSTFYADSVKGRFTISRDNAKNTVYLQMNSLKPEDTAVYYCAATVYYTYWGQGTQVTVSS", "polyreactivity (PSR sort gate)": "low polyreactivity"}, {"sequence": "QVQLVESGGGLVQAGGSLRLSCAASGSTFPYNAMGWYRQAPGKERELVAAITGRGGSTYYADSVKGRFTISRDNAKNTVYLQMNSLKPEDTAVYYCGADFWYSYYYWGQGTQVTVSS", "polyreactivity (PSR sort gate)": "high polyreactivity"}, {"sequence": "QVQLVESGGGLVQAGGSLRLSCAASGRTFYFNTLGWERQAPGKERELVAAISSGVNTYYADSVKGRFTISRDNAKTTVYLQMNSLKPEDTAVYYCNADYIHTGDYLWYFLYDYWGQGTQVTVSS", "polyreactivity (PSR sort gate)": "high polyreactivity"}, {"sequence": "QVQLVESGGGLVQAGGSLRLSCAASGRTFWVYAMGWYRQAPGKERELVASISWSVGSTYYADSVKGRFTISRDNAKNTVYLQMNSLKPEDTAVYYCNKTTLLTVEYDYWGQGSQVTVSS", "polyreactivity (PSR sort gate)": "low polyreactivity"}, {"sequence": "QVQLVESGGGLVQAGGSLRLSCAATGSIFYNYAMGWYRQAPGKERELVAAINRSGGITFYADSVKGRFTISRDNAKNTVYLQMNSLKPEDTAVYYCAAEEVPYDRDMDYWGQGTQVTVSS", "polyreactivity (PSR sort gate)": "low polyreactivity"}, {"sequence": "QVQLVESGGGLVQAGGSLRLSCAASGNTFSSNAMGWYRQAPGKERELVAAISWSGGRTYYADSVKGRFTISRDNAKNTVYLQMNSLKPEDTAVYYCAAALGRRRTGYDYWGQGTQVTVSS", "polyreactivity (PSR sort gate)": "high polyreactivity"}, {"sequence": "QVQLVETGGGLVQAGGSLRLSCAASGRPFHRYALGWYRQAPGKDRALGAAISRGGITYYADSVKGRFTISRDNAKNTVYLQMNSLKPEDTAVYYCAALYRYYHESSPFDYWGQGTQVTVSS", "polyreactivity (PSR sort gate)": "high polyreactivity"}, {"sequence": "QVQLVESGGGLVQAGGSLRLSCSASGYTFPLYAMGWYRQAPGKERELVADINIGGASTYYADSVKGRFTISRDNAKNTVYLQMNSLKPEDTAVYYCAIQYYDGYFPTFEYDYWGQGTQVTVSS", "polyreactivity (PSR sort gate)": "low polyreactivity"}, {"sequence": "QVQLVESGGGLVQAGGSLRLRCAASGSIFPWYAMGWYRQAPGKERELVAAITISGGSTHYADSVKGRFTISRDNAKNTVYLQMNCLKPEDTAVYYCATPRYPSYDYWGQGTQVTVSS", "polyreactivity (PSR sort gate)": "low polyreactivity"}, {"sequence": "QVQLVESGGGLLQAGGSLRLSCAASGIIFFKYAMGWYRQAPGKERELVAAINRSGGSTYYADSVKGRFTISRDNAKNSVSLQMNSLKPEDTAVYYCNARLTLRSYDYWGQGTQVTVSS", "polyreactivity (PSR sort gate)": "low polyreactivity"}, {"sequence": "QVQLVESGGGLDQAGGSLRLSCAASGFTFPIYAMGWYRQAPGKERELVAAITTRGGRTYYADSVKGRFTISRDNAKNTVYLQMNSLKPEDTAVYYCNAQGYAYRLWFGYWGQGTQVTVSS", "polyreactivity (PSR sort gate)": "high polyreactivity"}, {"sequence": "QVQLVESGGGLVQAGGSLRLSCAASGRTFAQYVMGWYRQAPGTERELVAAISGIGGSTYYADSVKGRFTISRDNAKNTVYLQMNSLNPEDTAVYYCAVELYWYPGYDYWGQGTQVTVSS", "polyreactivity (PSR sort gate)": "low polyreactivity"}, {"sequence": "QVQLVESGGGLVQAGGSLRLSCAASGFTFKYYAMGWYRQAPGKERELVAAISRGGSTYYADSVKGRFTFSRDNAKNTVYLQMNSLKPEDTAVYYCAARYVRVGYDYWGQGTQVTVSS", "polyreactivity (PSR sort gate)": "high polyreactivity"}, {"sequence": "QVQLVESGGGLVQAGGSLRLSCAASGSTLYSYAMGWYRQAPGKEREFVAAITSDDGSTYYADSVKGRFTISRDNAKNTVYLQMNSLKPEDTAVYYCATAASVEYNYWGQGTQVTVSS", "polyreactivity (PSR sort gate)": "low polyreactivity"}, {"sequence": "QVQLVESGGRLVQAGGSLRLICAASGSIFGHYAMGWYRQAPRKEREFVAAIDWSGGSSYYADSVKGRFTISRDNAKNTVYLQMISLKPEDTAVYYCAARVRERYYWGQGTQVTVSS", "polyreactivity (PSR sort gate)": "high polyreactivity"}, {"sequence": "QVQLVESGGGLVQAGGSLRLSCAASGRIFFTNAMGWYRQAPGKERELGAAIRFSGGRTYYADSVKGRFTISGDNAKNTVYLQMNSLKPEDTAVYYCAADPPRTRYRNARFDYWGQGTQVTVSS", "polyreactivity (PSR sort gate)": "high polyreactivity"}, {"sequence": "QVQLVESGGGLVQAGGSLRLSCAASGSIFSGNAMGWYRQAPGKERELVAAISRNGGSTYYADSVKGRFTISRDNAMNTVYLQMISLKPEDTAVYYCAASWYRRKIYYSWGQGTQVTVSS", "polyreactivity (PSR sort gate)": "high polyreactivity"}, {"sequence": "QVQLVESGGGLVQAGGSLRLSCAASGRIFGNYAMGWYRQAPGKERELVAAISGGGSTYYADSVKGRFTISRDNAKNTVYLQLNSLKPEDTAVYYCAARFLWSVFGGKGGYWGQGTQVTVSS", "polyreactivity (PSR sort gate)": "low polyreactivity"}, {"sequence": "QVQLVESGGGLVQAGGTLRLSCAASGITFEHYAMGWYRQAPGKERELVAAINRSGDNTYYADSVKGRFTISRYNAKNTFYLQMNSLKPEDTAVYYCNTVELYWRGYDYWGQGTQVTVSS", "polyreactivity (PSR sort gate)": "high polyreactivity"}, {"sequence": "QVQLVESGGGLVQAGGSLRLSCAASGSILGYYAMGWYRQAPGTEREFVAAITRSGSRTYYADSVKGRFTISRDNAKNTVNLHMNSLKPEDTAVYYCAKKGLFQGWPTLVDYWGEGTQVTVSS", "polyreactivity (PSR sort gate)": "high polyreactivity"}, {"sequence": "QVQLVESGGGLVQAGGSLRLSCAASGFTFFKYAMGWYRQAPGKERVLVAAITRNGGRTYYADSVKGRFTISRDNAKNTVYLQMNSLKPEDTAVYYCNAASVNGGRDFDYWGQGTQVTVSS", "polyreactivity (PSR sort gate)": "high polyreactivity"}, {"sequence": "QVQLVESGGGLVQAGGSLRLSCAASGSTFFPYAMGWYRQAPGKERELVATINYSGGGTYYADSVKGRFTISRDNAKNTVYLQMNSLKPEDTAVYYCAKTLARFDRGYYWGQGTQVTVSS", "polyreactivity (PSR sort gate)": "low polyreactivity"}, {"sequence": "QVQLVESGGGLVQAGGSLRLSCAASGRTFEGNAMGWDRQAPGKERELVAALTYPGGDTHYADSVKGRCTISRDNPKNTVYLQMTSLKPEDTAGYYCAADWGWPHTDSMDYWGQGTQVTVSS", "polyreactivity (PSR sort gate)": "low polyreactivity"}, {"sequence": "QVQLVESGGGLVQARGSLRLSCAASGSTILYYAMGWYRQAPGKERELVAVIRLDAGRTYYADSVKGRFTISRDNAKNTVYFQMNSLKPEDTAVYYCAAKGCFRTYGGGNYWGQGTQVTVSS", "polyreactivity (PSR sort gate)": "high polyreactivity"}, {"sequence": "QVQLVESGGGLVQAGGSLRLSCAASGRILVRNAMGWYRQAPGKERELVAAIRRGTSTNYADSVKGRFTISRDNAKNTVYLQMNSLKPEDTAVYYCAVRAASPYLDGAWRRRYDYWGQGTQVTVSS", "polyreactivity (PSR sort gate)": "low polyreactivity"}, {"sequence": "QVQRVESGGGLVQAGGSLLLSCAASGSILYSYPMGWYRQAPGKERELVAAITGDGASTNYADSVKGRFTISRDNAKNTDYLQMNSLKPEDTAVYYCNAGRESDDVYEGSKRIGQFDYWGQGTLVTVSS", "polyreactivity (PSR sort gate)": "low polyreactivity"}, {"sequence": "QVKLVESGGGLVQSGGSLRLTSAASGSTFPRYAMGWYRQAPGKEREFVAVIWSGGSTYYADSVKGRLTISRDNAKNTVYLQMNSLKPEDTAVYYCAAEYHTLSLDSGYATHDYWGQGTQVTVSS", "polyreactivity (PSR sort gate)": "low polyreactivity"}, {"sequence": "QVQLVESGGGLVQAGGSLRLSCAASGSTFRLYAMGWYRQAPGKERELVASITTGGSTYYADSVKGRFTISRDNAKNTVYLQMNSLKPEDTAVYYCAAEEYWEMDYWGQGTQVTVSS", "polyreactivity (PSR sort gate)": "low polyreactivity"}, {"sequence": "QVQLVETGGGIFQAGGSIRLSCAASGRTFSTYAKGWYRQAPGKERELVAGISRGGGSTYYADSVKGRFTISRDNAKNTVYLLMNSLKPEDTAVYYCAAKRPQYYVQYGYWGQGSQVTVSS", "polyreactivity (PSR sort gate)": "high polyreactivity"}, {"sequence": "QVQLVESGGVLVQAGGSLRLSCAASGRTFGVYAMGWYRQAPGKERELVATITSVDRTNYADSVKGRFTISRDNAKNTVYLQMNSLKTEDTAVYYCAAVGRWPLYYYWGQGTQVTVSS", "polyreactivity (PSR sort gate)": "high polyreactivity"}, {"sequence": "QVQLVESGGGLVQAGGSLRLSCAASGSTFYPYAMGWYRQAPGTEREFVAAITWSGGSTYYADSVKGRFTISRDNAKNTVYLQMNSLKPDDTAVYYCNAVVATSKYTDYYWGQGTQVTVSS", "polyreactivity (PSR sort gate)": "low polyreactivity"}, {"sequence": "QVQLVESGGGLVQAGGSLRLSCAASGSISYKYALGWYRQAPGKERELVAAISSSGGRTYYADSVKGRFTISRDNAKNTVYLQMISLKPEDTAVYYCNARTGTTWQGYEYDYWGQGTQVTVSS", "polyreactivity (PSR sort gate)": "low polyreactivity"}, {"sequence": "QVQLVESGGGLVQAGGSLRLSCAASGFTFYRYTMGWSRQAPGKERELVAAISARGVSTYYADSVKGRFTISRDNAKNTVYLQMNCLKPEDTAVYYCYVSRYDSWGQGTQVTVSS", "polyreactivity (PSR sort gate)": "high polyreactivity"}, {"sequence": "QVQLVESVGGLVQAGGSLRLSSAASGLIFNEYVMGWYRQAPGKERELVAGISRIGGSTYYADSVKGRFTISRDNAKNTVYLQMKSLKQEDTAVYYCARPNLLSGDYWGQGTQVTVSS", "polyreactivity (PSR sort gate)": "high polyreactivity"}, {"sequence": "QVQLVQSGGGLVQAGGSLRLSCAASGSTFYVYAMGWYRQAPGKEREFVAAISRSGGRTYYAVSVKGRFTISRDNAKNTVYLQMNSLKPEDTAVYYCNARDSLRYYTYYFEDYRVGYDYWGQGTQVTVSS", "polyreactivity (PSR sort gate)": "high polyreactivity"}, {"sequence": "QVQLVESGGGLVQAGGSLRLSCAASGSTFPWNAMGWYRQAPGKERELVAAINYGNGSTYYADSVKGRFTISRDNAKNTVYLQMNSLKPEDTAVYYCNADYTGTRTDSVTPEYEYWGQGTQVTVSS", "polyreactivity (PSR sort gate)": "low polyreactivity"}, {"sequence": "QVQLVESGGGLVQAGGSLRLSCAASGFTFVFNARAWYRQAPGKERELVATITNGGSTYYADSVKGRFTISRDNAKNTVYLQMNSLKPEDTAVYYCAAVRKQCSGFDYWGQGTQVTVSS", "polyreactivity (PSR sort gate)": "high polyreactivity"}, {"sequence": "QVQLVESGGGLVQAGGSLRLSCAASGLIFLWYAMGWYRQAPGKERELVAAIRSSGDSTYYADSVKGRFTISRDNAKNTVYLQMNSLKPEDTAVYYCNRRKTNSRYDYCGQGTQVTVSS", "polyreactivity (PSR sort gate)": "low polyreactivity"}, {"sequence": "QVQLVESGGGLVQAGGSLRLSCAASGSIFSWYTMGWYRQAPGKERELVARITTSGGTSTYYADSVKGRFTISRDNAKNTVYLQMNSLKPEDTAVYYCAADSPTSLYEYWGQGTQVTVSS", "polyreactivity (PSR sort gate)": "high polyreactivity"}, {"sequence": "QVQLVESGGGLVQAGGSLRLSCAASGSTFGNNAMGWYRQAAGKERELVAGINSGGSTTYADSVKGRFTISRDNAKNTVYLQMNSLKPEDTAVYYCAAVYYYYSWYSKHYYWGQGTQVTVSS", "polyreactivity (PSR sort gate)": "low polyreactivity"}, {"sequence": "QVQLVESGGGLVQAGGSLRLSCAASGTIFGKYAMGWYRQAPGKERELDAAISRAGGRTYYADSVKGRFTISRDNAKNTVYLQMNSLIPEDTAVYYCNAGNLHSGGQRWNLYYWGQCTQVTVSS", "polyreactivity (PSR sort gate)": "high polyreactivity"}, {"sequence": "QVKLVESGGGLVQAGGSLRLSCADSGSIFQRYAMGWYSQKPGKAREFVAAISGRGGSTYYADSVKGRFTISRDNAKNTVYLQMNSLKPEDTAVYYCAADSSRFYGRPRYYYWGQGTQVTVSS", "polyreactivity (PSR sort gate)": "high polyreactivity"}, {"sequence": "QVQLVDSAGGLVQAGGSLRLSCAASGLNYAIYAMGWYREAPGKERELVAAIRWSGASTYADSVKGRFTISRDNAKNTVYLQMNSLKPEDTAVYYCAADDLLDYDYWGQGTQVTVSS", "polyreactivity (PSR sort gate)": "low polyreactivity"}]}]}
